Assay results as given in patent US20250325630A1, “HOMODIMER FUSION PROTEINS FOR TREATING ATOPIC DERMATITIS” (Intervet Inc., priority 2021, published 2025).

Columns and labels:
[1] = target: T1, canine IL-4 (canine, UniProt O77762 25-132, biotin-labeled in the Octet assay (site not stated)); assay: BLI (Octet HTX), biotin-cIL-4 on SA biosensors, fusion protein in solution, 1:1 fit
T1 construct: Biotin-labeled and loaded on SA biosensors for the kinetics; unlabeled recombinant protein in the DH82 cell assay; also called cIL-4; canine Interleukin-4
T1 sequence (looked up): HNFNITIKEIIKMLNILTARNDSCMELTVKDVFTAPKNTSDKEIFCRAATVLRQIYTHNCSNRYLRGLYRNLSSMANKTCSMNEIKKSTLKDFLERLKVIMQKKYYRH
Procedure: (§1) The binding constants for the cFc fusion proteins provided in Tables 3 and 4 below, were determined using OCTET® HTX. All kinetics measurements were performed by OCTET® HTX using SA® biosensors and DATA ACQUISITION® 12.0 software. 10 μg/mL of biotin-labeled antigen, either canine IL-4 (cIL-4) or canine IL-13 (cIL-13) were loaded onto the SAR biosensors for 120 seconds. Next, the biosensors were placed into 1×pH 7.0 TBS/Casein buffer for 60 seconds for the blocking phase. For the association phase, antigen loaded biosensors were placed into 2-fold serial dilutions from 1 μM down to 15.6 nM of the wild-type, the bispecific, or the FcRn-mutant receptor Fc-fusions that recognized the cIL-4 or cIL-13 antigen in 1×pH 7.0 TBS/Casein buffer for 30 seconds. The last well was buffer alone and that sensor was used for reference sensor subtraction. Finally, the biosensors were placed into 1×pH 7.0 TBS/Casein buffer for 120 seconds for the dissociation phase. The results were then analyzed using Data Analysis 12.0 software and the curves were fitted using a 1:1 binding model.

[2] = target: T1, canine IL-4; assay: cell-based or functional assay
[3] = target: T1, canine IL-4; assay: cell-based or functional assay; remark: listed apart in the source
[4] = target: T1, canine IL-4; assay: BLI (Octet); summary table, rounded from Table 3
[5] = target: T2, canine IL-13 (canine, UniProt Q9N0W9 19-131, limits assumed, biotin-labeled in the Octet assay (site not stated)); assay: cell-based or functional assay
T2 sequence (looked up): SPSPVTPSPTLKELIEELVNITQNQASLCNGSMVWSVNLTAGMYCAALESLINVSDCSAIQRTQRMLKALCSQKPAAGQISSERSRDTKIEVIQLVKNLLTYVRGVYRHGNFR

[6] = target: T2, canine IL-13; assay: BLI (Octet); summary table, rounded from Table 4
[7] = target: T1, canine IL-4; assay: BLI (Octet)
Procedure: as §1

[8] = target: T2, canine IL-13; assay: BLI (Octet)
Procedure: as §1

[9] = target: T2, canine IL-13; assay: cell-based or functional assay; remark: listed apart in the source
[10] = target: T2, canine IL-13; assay: BLI (Octet HTX), biotin-cIL-13 on SA biosensors, fusion protein in solution, 1:1 fit
Procedure: as §1

[11] = target: T2, canine IL-13; assay: cell-based or functional assay; remark: listed apart in the source

| Binder | Kd [1] [pM] | koff [1] [s⁻¹] | kon [1] [M⁻¹ s⁻¹] | IL-4 (IC50), summary table [2] [pM] | IL-4 IC50 (inhibition of cIL-4 mediated STAT6 phosphorylation in DH82 cells) [3] [pM] | Kd [4] [pM] | fold change of the concentration that inhibits 50% of the cIL-13 mediated STAT6 phosphorylation in DH82 cells, against cIL-13Rα1-cFc [5] [fold lower] | fold change of the concentration that inhibits 50% of the cIL-13 mediated STAT6 phosphorylation in DH82 cells, against cIL-13Rα2-cFc [5] [fold higher] | Kd [6] [pM] | fold change of KD against the unmodified cIL-4Rα-cFc homodimer [7] [fold] | fold tighter binding than the unmodified IL-13Rα1-cFc [8] [fold] | IL-13 (IC50), summary table [9] [pM] | Kd [10] [pM] | koff [10] [s⁻¹] | kon [10] [M⁻¹ s⁻¹] | IL-13 IC50 (inhibition of cIL-13 mediated STAT6 phosphorylation in DH82 cells) [11] [pM] | fold decrease of KD against unmodified cIL-13Rα2-cFc [8] [fold] |
| --- | --- | --- | --- | --- | --- | --- | --- | --- | --- | --- | --- | --- | --- | --- | --- | --- | --- |
| cIL-4Rα-cIgGB-Fc (Fc fusion, Homodimer held by hinge disulfides; made in CHO cells, purified on protein A; also called cIL-4Rα-cFc; cIL4Rα-cFc) VKVLHEPSCFSDYISTSVCQWKMDHPTNCSAELRLSYQLDFMGSENHTCVPENREDSVCVCSMPIDDAVEADVYQLDLWAGQQLLWSGSFQPSKHVKPRTPGNLTVHPNISHTWLLMWTNPYPTENHLHSELTYMVNVSNDNDPEDFKVYNVTYMGPTLRLAASTLKSGASYSARVRAWAQTYNSTWSDWSPSTTWLNYYEPWEQHLPPKRENGRVPRPPDCPKCPAPEMLGGPSVFIFPPKPKDTLLIARTPEVTCVVVDLDPEDPEVQISWFVDGKQMQTAKTQPREEQFNGTYRVVSVLPIGHQDWLKGKQFTCKVNNKALPSPIERTISKARGQAHQPSVYVLPPSREELSKNTVSLTCLIKDFFPPDIDVEWQSNGQQEPESKYRTTPPQLDEDGSYFLYSKLSVDKSRWQRGDTFICAVMHEALHNHYTQESLSHSPGK | 1.18 | 8.3e-07 | 703000 | 80 | 84 | 1 | – | – | – | – | – | – | – | – | – | – | – |
| cIL-4Rα-13Rα1_ZW1-cFc (Fc fusion, also called cIL4Rα-IL13Rα1_ZW1-cFc; cIL-4Rα-IL-13Rα1_ZW1-cFc) chain 1: VKVLHEPSCFSDYISTSVCQWKMDHPTNCSAELRLSYQLDFMGSENHTCVPENREDSVCVCSMPIDDAVEADVYQLDLWAGQQLLWSGSFQPSKHVKPRTPGNLTVHPNISHTWLLMWTNPYPTENHLHSELTYMVNVSNDNDPEDFKVYNVTYMGPTLRLAASTLKSGASYSARVRAWAQTYNSTWSDWSPSTTWLNYYEPWEQHLPPKRENGRVPRPPDCPKCPAPEMLGGPSVFIFPPKPKDTLLIARTPEVTCVVVDLDPEDPEVQISWFVDGKQMQTAKTQPREEQFNGTYRVVSVLPIGHQDWLKGKQFTCKVNNKALPSPIERTISKARGQAHQPSVYVYPPSREELSKNTVSLTCLIKDFFPPDIDVEWQSNGQQEPESKYRTTPPQLDEDGSYALVSKLSVDKSRWQRGDTFICAVMHEALHNHYTQESLSHSPGK chain 2: GGVAAPTETQPPVTNLSVSVENLCTVIWTWDPPEGASPNCTLRYFSHFDNKQDKKIAPETHRSKEVPLNERICLQVGSQCSTNESDNPSILVEKCTPPPEGDPESAVTELQCVWHNLSYMKCTWLPGRNTSPDTNYTLYYWHSSLGKILQCEDIYREGQHIGCSFALTNLKDSSFEQHSVQIVVKDNAGKIRPSFNIVPLTSHVKPDPPHIKRLFFQNGNLYVQWKNPQNFYSRCLSYQVEVNNSQTETNDIFYVEEAKCQNSEFEGNLEGTICFMVPGVLPDTLNTVRIRVRTNKLCYEDDKLWSNWSQAMSIGENTDPTPKRENGRVPRPPDCPKCPAPEMLGGPSVFIFPPKPKDTLLIARTPEVTCVVVDLDPEDPEVQISWFVDGKQMQTAKTQPREEQFNGTYRVVSVLPIGHQDWLKGKQFTCKVNNKALPSPIERTISKARGQAHQPSVYVLPPSREELSKNTVSLLCLIKDFFPPDIDVEWQSNGQQEPESKYLTWPPQLDEDGSYFLYSKLSVDKSRWQRGDTFICAVMHEALHNHYTQESLSHSPGK | 9850 | 0.00234 | 237000 | 50 | 46 | 10000 | 6 | ~20 | 400 | ~10000 | 8 | 3000 | 415 | 3.91e-05 | 94400 | 3020 | – |
| cIL-4Rα-cIgGB-Fc-H (Fc fusion, Homodimer; also called cIL-4Rα-cFc-H; cIL-4Rα-cFc-NH) VKVLHEPSCFSDYISTSVCQWKMDHPTNCSAELRLSYQLDFMGSENHTCVPENREDSVCVCSMPIDDAVEADVYQLDLWAGQQLLWSGSFQPSKHVKPRTPGNLTVHPNISHTWLLMWTNPYPTENHLHSELTYMVNVSNDNDPEDFKVYNVTYMGPTLRLAASTLKSGASYSARVRAWAQTYNSTWSDWSPSTTWLNYYEPWEQHLPPKRENGRVPRPPDCPKCPAPEMLGGPSVFIFPPKPKDTLLIARTPEVTCVVVDLDPEDPEVQISWFVDGKQMQTAKTQPREEQFNGTYRVVSVLPIGHQDWLKGKQFTCKVNNKALPSPIERTISKARGQAHQPSVYVLPPSREELSKNTVSLTCLIKDFFPPDIDVEWQSNGQQEPESKYRTTPPQLDEDGSYFLYSKLSVDKSRWQRGDTFICAVMHEALHHHYTQESLSHSPGK | 126 | 9.88e-05 | 785000 | – | – | – | – | – | – | ~100 | – | – | – | – | – | – | – |
| cIL-4Rα-cIgGB-Fc-YTE (Fc fusion, Homodimer; also called cIL-4Rα-cFc-YTE) VKVLHEPSCFSDYISTSVCQWKMDHPTNCSAELRLSYQLDFMGSENHTCVPENREDSVCVCSMPIDDAVEADVYQLDLWAGQQLLWSGSFQPSKHVKPRTPGNLTVHPNISHTWLLMWTNPYPTENHLHSELTYMVNVSNDNDPEDFKVYNVTYMGPTLRLAASTLKSGASYSARVRAWAQTYNSTWSDWSPSTTWLNYYEPWEQHLPPKRENGRVPRPPDCPKCPAPEMLGGPSVFIFPPKPKDTLYITREPEVTCVVVDLDPEDPEVQISWFVDGKQMQTAKTQPREEQFNGTYRVVSVLPIGHQDWLKGKQFTCKVNNKALPSPIERTISKARGQAHQPSVYVLPPSREELSKNTVSLTCLIKDFFPPDIDVEWQSNGQQEPESKYRTTPPQLDEDGSYFLYSKLSVDKSRWQRGDTFICAVMHEALHNHYTQESLSHSPGK | 11.1 | 9.23e-06 | 830000 | – | – | – | – | – | – | ~10 | – | – | – | – | – | – | – |
| cIL-13Rα2-cIgGB-Fc-YD (Fc fusion, Homodimer; also called cIL-13Rα2-cFc-YD) SMLSNAEIKVNPPQDFEIVDPGYLGYLSLQWQPPLFPDNFKECTIEYELKYRNIDSENWKTIITKNLHYKDGFDLNKGIEAKINTLLPAQCTNGSEVRSSWAETTYWTSPQGNRETKIQDMDCVYYNWQYLVCSWKPGMGVHFDTNYQLFYWYEGLDHSAECTDYIKVNGKNMGCRFPYLESSDYKDFYICVNGSSESQPIRPSYFIFQLQNIVKPMPPDYLSLTVKNSEEINLKWNMPKGPIPAKCFIYEIEFTEDGTTWVTTTVENEIQITRTSNESQKLCFLVRSKVNIYCSDDGIWSEWSDEQCWKGDIWKETPKRENGRVPRPPDCPKCPAPEMLGGPSVFIFPPKPKDTLYIARDPEVTCVVVDLDPEDPEVQISWFVDGKQMQTAKTQPREEQFNGTYRVVSVLPIGHQDWLKGKQFTCKVNNKALPSPIERTISKARGQAHQPSVYVLPPSREELSKNTVSLTCLIKDFFPPDIDVEWQSNGQQEPESKYRTTPPQLDEDGSYFLYSKLSVDKSRWQRGDTFICAVMHEALHNHYTQESLSHSPGK | – | – | – | – | – | – | – | – | – | – | – | – | 0.44 | 5.07e-07 | 1.15e+06 | – | ~2 |
| cIL-13Rα2-cIgGB-Fc-YTE (Fc fusion, Homodimer; also called cIL-13Rα2-cFc-YTE) SMLSNAEIKVNPPQDFEIVDPGYLGYLSLQWQPPLFPDNFKECTIEYELKYRNIDSENWKTIITKNLHYKDGFDLNKGIEAKINTLLPAQCTNGSEVRSSWAETTYWTSPQGNRETKIQDMDCVYYNWQYLVCSWKPGMGVHFDTNYQLFYWYEGLDHSAECTDYIKVNGKNMGCRFPYLESSDYKDFYICVNGSSESQPIRPSYFIFQLQNIVKPMPPDYLSLTVKNSEEINLKWNMPKGPIPAKCFIYEIEFTEDGTTWVTTTVENEIQITRTSNESQKLCFLVRSKVNIYCSDDGIWSEWSDEQCWKGDIWKETPKRENGRVPRPPDCPKCPAPEMLGGPSVFIFPPKPKDTLYITREPEVTCVVVDLDPEDPEVQISWFVDGKQMQTAKTQPREEQFNGTYRVVSVLPIGHQDWLKGKQFTCKVNNKALPSPIERTISKARGQAHQPSVYVLPPSREELSKNTVSLTCLIKDFFPPDIDVEWQSNGQQEPESKYRTTPPQLDEDGSYFLYSKLSVDKSRWQRGDTFICAVMHEALHNHYTQESLSHSPGK | – | – | – | – | – | – | – | – | – | – | – | – | 0.432 | 5.04e-07 | 1.17e+06 | – | ~2 |
